What was measured:
[1] = BHET released, HPLC; higher = more BHET released; extreme values may be limits of the assay; conditions: 24 h
Procedure: (§1)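 Purified PET hydrolases, 2.5 ug enzyme on 3.5 mg amorphous PET film (aFilm) or crystalline PET powder (cryPow) in 0.5 mL of 50 mM buffer (NaCitrate pH 4.5/5.5, NaPhosphate 6.5/7.5, glycine 8.5/9.5) at 60 or 70 C with shaking for 24 h. Total aromatic product by UV-Vis (260/280 nm, blank-subtracted, normalised per mg enzyme) and individual TPA, MHET, BHET concentrations by UHPLC-DAD at 240 nm; duplicate reactions.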

[2] = MHET released, HPLC; higher = more MHET released; extreme values may be limits of the assay; conditions: 24 h
Procedure: as §1

[3] = terephthalic acid (TPA) released, HPLC; higher = more TPA released; extreme values may be limits of the assay; conditions: 24 h
Procedure: as §1

[4] = PET hydrolysis product formed (TPA+MHET+BHET, UV-Vis) per mg enzyme (mmol/mg enzyme); higher = more PET depolymerisation activity; extreme values may be limits of the assay; conditions: 2 h
Procedure: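 Purified PET hydrolases (His-SUMO cleaved, E. coli C41(DE3) small-scale expression), 2.5 ug enzyme on 3.5 mg amorphous PET film (aFilm) or crystalline PET powder (cryPow) in 0.5 mL of 50 mM buffer (NaCitrate pH 4.5/5.5, NaPhosphate 6.5/7.5, glycine 8.5/9.5) at 60 or 70 C with shaking for 2 h. Soluble aromatic products (TPA+MHET+BHET) were quantified by UV-Vis at 260/280 nm, blank-subtracted against the no-enzyme control, and normalised per mg enzyme; duplicate reactions.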

SNPYQRGPNPTRSALTADGPFSVATYTVSRLSVSGFGGGVIYYPTGTSLTFGGIAMSPGYTADASSLAWLGRRLASHGFVVLVINTNSRFDGPDSRASQLSAALNYLRTSSPSAVRARLDANRLAVAGHSMGGGGTLRIAEQNPSLKAAVPLTPWHTDKTFNTSVPVLIVGAEADTVAPVSQHAIPFYQNLPSTTPKVYVELCNASHIAPNSNNAAISVYTISWMKLWVDNDTRYRQFLCNVNDPALCDFRTNNRHCQ [LCC-ICCG]
Conditions	BHET released, [1] [mM]	MHET released, [2] [mM]	PET hydrolysis product formed, [4]	terephthalic acid, [3] [mM]
PET substrate: aFilm, 60 °C, pH 4.5	0	0.00708	0	0.0137
PET substrate: aFilm, 60 °C, pH 5.5	0.00902	0.284	0.0182	0.309
PET substrate: aFilm, 60 °C, pH 6.5	0.0136	0.773	0.0377	0.78
PET substrate: aFilm, 60 °C, pH 7.5	0.0155	3.92	0.0795	3.41
PET substrate: aFilm, 60 °C, pH 8.5	0	0.271	0.0461	0.472
PET substrate: aFilm, 60 °C, pH 9.5	0.039	2.19	0.0968	2.3
PET substrate: aFilm, 70 °C, pH 4.5	0	0	0	0
PET substrate: aFilm, 70 °C, pH 5.5	0.00749	0.246	0.0371	0.25
PET substrate: aFilm, 70 °C, pH 6.5	0	0.356	0.0873	0.362
PET substrate: aFilm, 70 °C, pH 7.5	0.0808	4.35	0.226	2.48
PET substrate: aFilm, 70 °C, pH 8.5	0	0.221	0.0682	0.287
PET substrate: aFilm, 70 °C, pH 9.5	0	1.87	0.252	1.72
PET substrate: cryPow, 60 °C, pH 4.5	0	0.0148	0	0.0129
PET substrate: cryPow, 60 °C, pH 5.5	0.00462	0.203	0.0406	0.0979
PET substrate: cryPow, 60 °C, pH 6.5	0	0.27	0.045	0.113
PET substrate: cryPow, 60 °C, pH 7.5	0	0.507	0.0768	0.308
PET substrate: cryPow, 60 °C, pH 8.5	0	0.198	0.0339	0.121
PET substrate: cryPow, 60 °C, pH 9.5	0	0.165	0.0379	0.516
PET substrate: cryPow, 70 °C, pH 4.5	0	0	0	0
PET substrate: cryPow, 70 °C, pH 5.5	0	0.1	0.0205	0.0559
PET substrate: cryPow, 70 °C, pH 6.5	0.0013	0.208	0.0349	0.0977
PET substrate: cryPow, 70 °C, pH 7.5	0	0.433	0.0598	0.409
PET substrate: cryPow, 70 °C, pH 8.5	0	0.173	0.0285	0.111
PET substrate: cryPow, 70 °C, pH 9.5	0	0.1	0.0357	0.682

SNPYQRGPNPTRSALTADGPFSVATYTVSRLSVSGFGGGVIYYPTGTSLTFGGIAMSPGYTADASSLAWLGRRLASHGFVVLVINTNSRFDGPDSRASQLSAALNYLRTSSPSAVRARLDANRLAVAGHSMGGGGTLRIAEQNPSLKAAVPLTPWHTDKTFNTSVPVLIVGAEADTVAPVSQYAIPFYQNLPSTTPKVYVELCNASHIAPNSDNAAISVYTISWMKLWVDNDTRYRQFLCNVNDPALCDFRTNNRHCQ [LCC-A2]
Conditions	BHET released, [1] [mM]	MHET released, [2] [mM]	PET hydrolysis product formed, [4]	terephthalic acid, [3] [mM]
PET substrate: aFilm, 60 °C, pH 4.5	0	0.107	0	0.195
PET substrate: aFilm, 60 °C, pH 5.5	0	0.735	0.031	0.792
PET substrate: aFilm, 60 °C, pH 6.5	0	1.23	0.061	1.34
PET substrate: aFilm, 60 °C, pH 7.5	0	6.36	0.144	5.52
PET substrate: aFilm, 60 °C, pH 8.5	0	0.322	0.0742	0.776
PET substrate: aFilm, 60 °C, pH 9.5	0.0275	2.64	0.154	2.661
PET substrate: aFilm, 70 °C, pH 4.5	0	0	0	0.0095
PET substrate: aFilm, 70 °C, pH 5.5	0.00399	0.429	0.0749	0.455
PET substrate: aFilm, 70 °C, pH 6.5	0	0.862	0.138	0.83
PET substrate: aFilm, 70 °C, pH 7.5	0.0146	8.82	0.418	5.42
PET substrate: aFilm, 70 °C, pH 8.5	0	0.253	0.09	0.643
PET substrate: aFilm, 70 °C, pH 9.5	0	2.25	0.423	2.9
PET substrate: cryPow, 60 °C, pH 4.5	0.0062	0.1017	0.0208	0.0633
PET substrate: cryPow, 60 °C, pH 5.5	0	0.24	0.0469	0.132
PET substrate: cryPow, 60 °C, pH 6.5	0	0.476	0.062	0.232
PET substrate: cryPow, 60 °C, pH 7.5	0	0.733	0.127	0.39
PET substrate: cryPow, 60 °C, pH 8.5	0	0.261	0.0645	0.174
PET substrate: cryPow, 60 °C, pH 9.5	0	0.281	0.0424	0.789
PET substrate: cryPow, 70 °C, pH 4.5	0	0.0080455	0	0.0184
PET substrate: cryPow, 70 °C, pH 5.5	0	0.168	0.0282	0.0932
PET substrate: cryPow, 70 °C, pH 6.5	0	0.421	0.0641	0.209
PET substrate: cryPow, 70 °C, pH 7.5	0	0.748	0.107	0.639
PET substrate: cryPow, 70 °C, pH 8.5	0	0.293	0.0569	0.157
PET substrate: cryPow, 70 °C, pH 9.5	0	0.189	0.0859	0.987

SNPYQRGPNPTRSALTADGPFSVRTYTISRLSVSGFGGGVIYYPTGTSLTFGGIAMSPGYTADASSLAWLGRRLASHGFVVLVINTNSRFDGPDSRASQLSAALNYLRTSSPSAVRARLDANRLAVAGHSMGGGGTLRIAEQNPSLKAAVPLTPWHTDKTFNTSVPVLIVGAEADTVAPVSQHAIPFYQNLPSTTPKVYVELCNASHIAPNSPNAAISVYTISWMKLWVDNDTRYRQFLCNVNDPALCDFRTNNRHCQ [LCC-ICCG RIP]
Conditions	BHET released, [1] [mM]	MHET released, [2] [mM]	PET hydrolysis product formed, [4]	terephthalic acid, [3] [mM]
PET substrate: aFilm, 60 °C, pH 4.5	0.00297	0.0627	0	0.0858
PET substrate: aFilm, 60 °C, pH 5.5	0.00225	0.19	0.0147	0.202
PET substrate: aFilm, 60 °C, pH 6.5	0	0.477	0.0276	0.423
PET substrate: aFilm, 60 °C, pH 7.5	0.0189	1.93	0.0697	1.96
PET substrate: aFilm, 60 °C, pH 8.5	0.00205	0.309	0.0326	0.346
PET substrate: aFilm, 60 °C, pH 9.5	0.0202	1.34	0.0672	1.27
PET substrate: aFilm, 70 °C, pH 4.5	0	0.00485	0	0.00741
PET substrate: aFilm, 70 °C, pH 5.5	0.00382	0.23	0.0525	0.255
PET substrate: aFilm, 70 °C, pH 6.5	0	0.352	0.0606	0.361
PET substrate: aFilm, 70 °C, pH 7.5	0.0465	2.36	0.151	1.63
PET substrate: aFilm, 70 °C, pH 8.5	0	0.217	0.0612	0.2235
PET substrate: aFilm, 70 °C, pH 9.5	0	0.896	0.175	1.66
PET substrate: cryPow, 60 °C, pH 4.5	0.00464	0.0685	0.011	0.0388
PET substrate: cryPow, 60 °C, pH 5.5	0	0.1986	0.0235	0.0956
PET substrate: cryPow, 60 °C, pH 6.5	0	0.257	0.0304	0.113
PET substrate: cryPow, 60 °C, pH 7.5	0	0.292	0.0711	0.147
PET substrate: cryPow, 60 °C, pH 8.5	0	0.186	0.0405	0.121
PET substrate: cryPow, 60 °C, pH 9.5	0	0.0905	0.0143	0.307
PET substrate: cryPow, 70 °C, pH 4.5	0	0.0111	0	0.00368
PET substrate: cryPow, 70 °C, pH 5.5	0.00217	0.10965	0.0166	0.057
PET substrate: cryPow, 70 °C, pH 6.5	0	0.2013	0.0257	0.0917
PET substrate: cryPow, 70 °C, pH 7.5	0	0.367	0.045	0.322
PET substrate: cryPow, 70 °C, pH 8.5	0	0.164	0.0206	0.118
PET substrate: cryPow, 70 °C, pH 9.5	0	0.0678	0.0257	0.4635

SNPYQRGPNPTRSALTATGPFSVATYTVSRLLVSGFGGGVIYYPTGTSLTFGGIAMSPGYTADASSLAWLGRRLASHGFVVLVINTNSRFDGPDSRARQLSAALNYLRTSSPSAVRARLDANRLAVAGHSMGGGGTLRIAEQNPSLKAAVPLTPWHPDKTFNTSVPVLIVGAQADTVAPVSQHAIPFYQNLPSTTPKVYVELCNASHIAPNSPNAAISVYTISWMKLWVDNDTRYRQFLCNVNDPALCDFRTNNRHCQ [LCC-ICCG I6M]
Conditions	BHET released, [1] [mM]	MHET released, [2] [mM]	PET hydrolysis product formed, [4]	terephthalic acid, [3] [mM]
PET substrate: aFilm, 60 °C, pH 4.5	0	0.067	0	0.104
PET substrate: aFilm, 60 °C, pH 5.5	0.00212	0.339	0.0198	0.39
PET substrate: aFilm, 60 °C, pH 6.5	0	0.534	0.0378	0.499
PET substrate: aFilm, 60 °C, pH 7.5	0.0371	3.6	0.0723	2.85
PET substrate: aFilm, 60 °C, pH 8.5	0.00219	0.333	0.0336	0.541
PET substrate: aFilm, 60 °C, pH 9.5	0	1.14	0.0585	1.37
PET substrate: aFilm, 70 °C, pH 4.5	0	0	0	0
PET substrate: aFilm, 70 °C, pH 5.5	0.00615	0.236	0.0242	0.275
PET substrate: aFilm, 70 °C, pH 6.5	0	0.211	0.057	0.246
PET substrate: aFilm, 70 °C, pH 7.5	0	1.51	0.149	1.37
PET substrate: aFilm, 70 °C, pH 8.5	0	0.164	0.021	0.209
PET substrate: aFilm, 70 °C, pH 9.5	0	0.409	0.0849	1.33
PET substrate: cryPow, 60 °C, pH 4.5	0.00411	0.0591	0.0118	0.0328
PET substrate: cryPow, 60 °C, pH 5.5	0	0.178	0.031	0.102
PET substrate: cryPow, 60 °C, pH 6.5	0	0.22	0.0457	0.105
PET substrate: cryPow, 60 °C, pH 7.5	0	0.206	0.035	0.116
PET substrate: cryPow, 60 °C, pH 8.5	0	0.113	0.0317	0.0874
PET substrate: cryPow, 60 °C, pH 9.5	0	0.0594	0.0174	0.263
PET substrate: cryPow, 70 °C, pH 4.5	0	0	0	0
PET substrate: cryPow, 70 °C, pH 5.5	0	0.0931	0.0164	0.0482
PET substrate: cryPow, 70 °C, pH 6.5	0	0.136	0.0289	0.0691
PET substrate: cryPow, 70 °C, pH 7.5	0	0.275	0.0329	0.288
PET substrate: cryPow, 70 °C, pH 8.5	0	0.13	0.0203	0.1
PET substrate: cryPow, 70 °C, pH 9.5	0	0.0223	0.0239	0.25

— the supplement of paper PMC11196671
